Literature values as cited in PMC6551275.
pKd: −log10 of the molar value.

Molecular target: UBQLN2 UBA (Homo sapiens) (UniProt Q9UHD9)
Sequence (Q9UHD9 578-624): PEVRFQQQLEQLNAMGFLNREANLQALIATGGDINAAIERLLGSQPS

UBQLN2 UBL, sequence (Q9UHD9 33-107): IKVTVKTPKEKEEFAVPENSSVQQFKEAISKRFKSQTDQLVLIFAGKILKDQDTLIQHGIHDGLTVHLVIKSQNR

- pKd: 3.76
Substance: UBQLN2 UBL (from UniProt Q9UHD9)
